Results reported in publication PMC8988006, “Structural and biochemical characterization of the prenylated flavin mononucleotide-dependent indole-3-carboxylic acid decarboxylase” (The Journal of Biological Chemistry, 2022).
Substitutions are numbered along the chain they refer to. One block for each molecule: values may come before it.

What was measured:
[1] = target: indole-3-carboxylate decarboxylase from Arthrobacter nicotianae (Arthrobacter nicotianae); experiment: SAXS; HPLC SAXS (Shodex KW-403 column, 0.15 ml/min) on beamline B21, Diamond Light Source; ab initio envelope (DAMMIN/DAMAVER) with the hexamer crystal structure superimposed
[2] = target: indole-3-carboxylate decarboxylase from Arthrobacter nicotianae (Arthrobacter nicotianae); experiment: crystal structure; AnInD at ca 15 mg/ml, sitting drop vapor diffusion, PACT screen condition G5, 20 °C; crystals soaked with prFMN; space group P2_(1); whole hexamer in the asymmetric unit
[3] = target: T1, SrCAR (Seginiliparous rugosus carboxylic acid reductase) (Segniliparus rugosus, UniProt E5XP76); experiment: one-pot cascade with AnInD, HPLC; type: biochemical; details: I3C formed in situ from indole + NaHCO3 by AnInD; ATP, NADPH, Mn2+, Mg2+; potassium phosphate, 30 °C
T1 construct: gene car
T1 sequence (E5XP76 1-1188): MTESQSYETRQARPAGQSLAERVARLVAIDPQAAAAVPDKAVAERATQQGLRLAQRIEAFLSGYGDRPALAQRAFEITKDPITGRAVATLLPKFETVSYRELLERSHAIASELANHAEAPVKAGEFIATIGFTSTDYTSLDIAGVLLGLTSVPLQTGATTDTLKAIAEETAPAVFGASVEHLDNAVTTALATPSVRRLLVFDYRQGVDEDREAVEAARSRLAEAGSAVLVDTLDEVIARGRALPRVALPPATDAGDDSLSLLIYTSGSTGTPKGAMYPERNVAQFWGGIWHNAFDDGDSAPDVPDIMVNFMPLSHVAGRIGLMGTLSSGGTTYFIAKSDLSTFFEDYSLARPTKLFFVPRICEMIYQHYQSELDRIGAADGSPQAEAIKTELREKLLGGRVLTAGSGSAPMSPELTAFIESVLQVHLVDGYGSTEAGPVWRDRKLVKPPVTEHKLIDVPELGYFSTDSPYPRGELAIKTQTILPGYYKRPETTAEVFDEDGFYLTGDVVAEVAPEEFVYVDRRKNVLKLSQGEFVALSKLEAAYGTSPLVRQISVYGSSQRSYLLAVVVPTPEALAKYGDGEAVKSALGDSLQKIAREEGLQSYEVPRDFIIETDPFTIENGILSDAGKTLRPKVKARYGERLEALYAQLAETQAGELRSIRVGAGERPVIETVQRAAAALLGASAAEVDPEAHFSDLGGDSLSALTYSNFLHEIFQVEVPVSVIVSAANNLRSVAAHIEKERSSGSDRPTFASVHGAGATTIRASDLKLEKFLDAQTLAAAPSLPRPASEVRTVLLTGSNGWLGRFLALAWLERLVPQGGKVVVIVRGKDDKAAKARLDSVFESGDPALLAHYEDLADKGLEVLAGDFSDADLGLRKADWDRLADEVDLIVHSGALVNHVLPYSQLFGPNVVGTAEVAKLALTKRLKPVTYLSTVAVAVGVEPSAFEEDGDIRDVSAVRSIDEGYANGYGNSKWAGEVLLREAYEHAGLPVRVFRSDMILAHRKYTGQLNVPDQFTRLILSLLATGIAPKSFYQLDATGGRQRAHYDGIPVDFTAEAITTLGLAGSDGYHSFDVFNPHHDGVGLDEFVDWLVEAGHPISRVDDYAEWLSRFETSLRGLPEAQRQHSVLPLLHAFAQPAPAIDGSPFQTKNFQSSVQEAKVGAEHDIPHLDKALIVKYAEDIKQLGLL

[4] = target: T2, AnInD (indole-3-carboxylic acid decarboxylase) (Glutamicibacter nicotianae, UniProt Z9P359VB74, D169A); experiment: end point HPLC decarboxylation assay; type: biochemical; details: prFMN-reconstituted; 50 mM potassium phosphate pH 6.5, 10 mM I3C, 2 μM enzyme
T2 construct: His6-tagged (C-terminal in pET30a or N-terminal in pET28a), E. coli BL21(DE3), Ni-NTA, ~50 kDa by SDS-PAGE, hexamer, reconstituted with prFMN and Mn2+
T2 sequence (Z9P359VB74 2-461 D169A): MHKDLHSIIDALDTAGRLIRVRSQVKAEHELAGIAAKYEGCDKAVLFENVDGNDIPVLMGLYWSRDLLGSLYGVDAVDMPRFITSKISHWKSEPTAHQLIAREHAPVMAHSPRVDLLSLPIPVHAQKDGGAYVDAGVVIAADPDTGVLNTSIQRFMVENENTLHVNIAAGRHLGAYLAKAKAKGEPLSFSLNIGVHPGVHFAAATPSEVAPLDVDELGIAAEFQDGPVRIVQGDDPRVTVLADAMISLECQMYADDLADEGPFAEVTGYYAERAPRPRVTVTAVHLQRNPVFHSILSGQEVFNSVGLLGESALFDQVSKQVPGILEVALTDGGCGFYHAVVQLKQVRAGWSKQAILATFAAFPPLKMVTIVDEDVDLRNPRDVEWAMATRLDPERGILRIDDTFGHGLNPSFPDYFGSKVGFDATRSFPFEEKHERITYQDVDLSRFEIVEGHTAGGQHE

[5] = target: T3, AnInD (indole-3-carboxylic acid decarboxylase) (Glutamicibacter nicotianae, UniProt Z9P359VB74, D169L); experiment: end point HPLC decarboxylation assay; type: biochemical; details: prFMN-reconstituted; 50 mM potassium phosphate pH 6.5, 10 mM I3C, 2 μM enzyme
T3 construct: His6-tagged (C-terminal in pET30a or N-terminal in pET28a), E. coli BL21(DE3), Ni-NTA, ~50 kDa by SDS-PAGE, hexamer, reconstituted with prFMN and Mn2+
T3 sequence (Z9P359VB74 2-461 D169L): T2 sequence (Z9P359VB74 2-461 D169A) with A168L

[6] = target: T4, AnInD (indole-3-carboxylic acid decarboxylase) (Glutamicibacter nicotianae, UniProt Z9P359VB74, D169V); experiment: end point HPLC decarboxylation assay; type: biochemical; details: prFMN-reconstituted; 50 mM potassium phosphate pH 6.5, 10 mM I3C, 2 μM enzyme
T4 construct: His6-tagged (C-terminal in pET30a or N-terminal in pET28a), E. coli BL21(DE3), Ni-NTA, ~50 kDa by SDS-PAGE, hexamer, reconstituted with prFMN and Mn2+
T4 sequence (Z9P359VB74 2-461 D169V): T2 sequence (Z9P359VB74 2-461 D169A) with A168V

O=C(O)c1c[nH]c2ccccc12 = test system: T5, O=C(O)c1c[nH]c2ccccc12; experiment: purified protein; type: biochemical, Glutamicibacter nicotianae; details: prFMN-reconstituted enzyme, Mn2+, 50 mM potassium phosphate pH 6.5, 50 mM KCl, room temperature, apparent because active enzyme (prFMN) content is unknown
T5 construct: His6-tagged (C-terminal in pET30a or N-terminal in pET28a), E. coli BL21(DE3), Ni-NTA, ~50 kDa by SDS-PAGE, hexamer, reconstituted with prFMN and Mn2+

stoichiometry N [1]: 6 | stoichiometry N [2]: 6
Molecule: indole-3-carboxylate decarboxylase from Arthrobacter nicotianae (enzyme)

Molecule: O=C(O)c1c[nH]c2ccccc12 [I3C, indole-3-carboxylic acid]
one-pot cascade with AnInD, HPLC [3]: These assays revealed the formation/production of indole-3-carboxyaldehyde | activity [4]: All AnInD D169X variants were found to be severely affected in activity | activity [5]: All AnInD D169X variants were found to be severely affected in activity | activity [6]: All AnInD D169X variants were found to be severely affected in activity

Molecule: AnInD (indole-3-carboxylic acid decarboxylase) (Glutamicibacter nicotianae)
Km (O=C(O)c1c[nH]c2ccccc12): 790 µM | kcat (O=C(O)c1c[nH]c2ccccc12): 4.4 (±0.3) s^−1
